US20190119397A1 (ZIELBIO, published 2019)

How the values were obtained:
[1] = molecular target: T1, recombinant human Sec8-His protein (human); assay: in vitro binding assay on recombinant human Sec8-His protein (FIG. 3A)
T1 construct: also called recombinant human C-terminal portion of Plectin-1 protein; pET-10NC-Plec C term
T1 chain: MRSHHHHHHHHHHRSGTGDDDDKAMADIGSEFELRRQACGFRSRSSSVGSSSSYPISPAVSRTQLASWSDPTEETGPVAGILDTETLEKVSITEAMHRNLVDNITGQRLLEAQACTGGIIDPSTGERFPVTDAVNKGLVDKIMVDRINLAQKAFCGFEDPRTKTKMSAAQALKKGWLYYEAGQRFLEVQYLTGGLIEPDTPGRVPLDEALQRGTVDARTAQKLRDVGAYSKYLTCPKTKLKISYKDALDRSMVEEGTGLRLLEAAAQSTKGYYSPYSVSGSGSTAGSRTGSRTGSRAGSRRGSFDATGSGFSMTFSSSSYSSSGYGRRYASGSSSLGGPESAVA

[2] = molecular target: plectin-1 on the surface of cancer cells (Homo sapiens, UniProt Q15149 1-4684); assay: cell-based or functional assay
Chain of plectin-1 on the surface of cancer cells (Q15149 whole entry): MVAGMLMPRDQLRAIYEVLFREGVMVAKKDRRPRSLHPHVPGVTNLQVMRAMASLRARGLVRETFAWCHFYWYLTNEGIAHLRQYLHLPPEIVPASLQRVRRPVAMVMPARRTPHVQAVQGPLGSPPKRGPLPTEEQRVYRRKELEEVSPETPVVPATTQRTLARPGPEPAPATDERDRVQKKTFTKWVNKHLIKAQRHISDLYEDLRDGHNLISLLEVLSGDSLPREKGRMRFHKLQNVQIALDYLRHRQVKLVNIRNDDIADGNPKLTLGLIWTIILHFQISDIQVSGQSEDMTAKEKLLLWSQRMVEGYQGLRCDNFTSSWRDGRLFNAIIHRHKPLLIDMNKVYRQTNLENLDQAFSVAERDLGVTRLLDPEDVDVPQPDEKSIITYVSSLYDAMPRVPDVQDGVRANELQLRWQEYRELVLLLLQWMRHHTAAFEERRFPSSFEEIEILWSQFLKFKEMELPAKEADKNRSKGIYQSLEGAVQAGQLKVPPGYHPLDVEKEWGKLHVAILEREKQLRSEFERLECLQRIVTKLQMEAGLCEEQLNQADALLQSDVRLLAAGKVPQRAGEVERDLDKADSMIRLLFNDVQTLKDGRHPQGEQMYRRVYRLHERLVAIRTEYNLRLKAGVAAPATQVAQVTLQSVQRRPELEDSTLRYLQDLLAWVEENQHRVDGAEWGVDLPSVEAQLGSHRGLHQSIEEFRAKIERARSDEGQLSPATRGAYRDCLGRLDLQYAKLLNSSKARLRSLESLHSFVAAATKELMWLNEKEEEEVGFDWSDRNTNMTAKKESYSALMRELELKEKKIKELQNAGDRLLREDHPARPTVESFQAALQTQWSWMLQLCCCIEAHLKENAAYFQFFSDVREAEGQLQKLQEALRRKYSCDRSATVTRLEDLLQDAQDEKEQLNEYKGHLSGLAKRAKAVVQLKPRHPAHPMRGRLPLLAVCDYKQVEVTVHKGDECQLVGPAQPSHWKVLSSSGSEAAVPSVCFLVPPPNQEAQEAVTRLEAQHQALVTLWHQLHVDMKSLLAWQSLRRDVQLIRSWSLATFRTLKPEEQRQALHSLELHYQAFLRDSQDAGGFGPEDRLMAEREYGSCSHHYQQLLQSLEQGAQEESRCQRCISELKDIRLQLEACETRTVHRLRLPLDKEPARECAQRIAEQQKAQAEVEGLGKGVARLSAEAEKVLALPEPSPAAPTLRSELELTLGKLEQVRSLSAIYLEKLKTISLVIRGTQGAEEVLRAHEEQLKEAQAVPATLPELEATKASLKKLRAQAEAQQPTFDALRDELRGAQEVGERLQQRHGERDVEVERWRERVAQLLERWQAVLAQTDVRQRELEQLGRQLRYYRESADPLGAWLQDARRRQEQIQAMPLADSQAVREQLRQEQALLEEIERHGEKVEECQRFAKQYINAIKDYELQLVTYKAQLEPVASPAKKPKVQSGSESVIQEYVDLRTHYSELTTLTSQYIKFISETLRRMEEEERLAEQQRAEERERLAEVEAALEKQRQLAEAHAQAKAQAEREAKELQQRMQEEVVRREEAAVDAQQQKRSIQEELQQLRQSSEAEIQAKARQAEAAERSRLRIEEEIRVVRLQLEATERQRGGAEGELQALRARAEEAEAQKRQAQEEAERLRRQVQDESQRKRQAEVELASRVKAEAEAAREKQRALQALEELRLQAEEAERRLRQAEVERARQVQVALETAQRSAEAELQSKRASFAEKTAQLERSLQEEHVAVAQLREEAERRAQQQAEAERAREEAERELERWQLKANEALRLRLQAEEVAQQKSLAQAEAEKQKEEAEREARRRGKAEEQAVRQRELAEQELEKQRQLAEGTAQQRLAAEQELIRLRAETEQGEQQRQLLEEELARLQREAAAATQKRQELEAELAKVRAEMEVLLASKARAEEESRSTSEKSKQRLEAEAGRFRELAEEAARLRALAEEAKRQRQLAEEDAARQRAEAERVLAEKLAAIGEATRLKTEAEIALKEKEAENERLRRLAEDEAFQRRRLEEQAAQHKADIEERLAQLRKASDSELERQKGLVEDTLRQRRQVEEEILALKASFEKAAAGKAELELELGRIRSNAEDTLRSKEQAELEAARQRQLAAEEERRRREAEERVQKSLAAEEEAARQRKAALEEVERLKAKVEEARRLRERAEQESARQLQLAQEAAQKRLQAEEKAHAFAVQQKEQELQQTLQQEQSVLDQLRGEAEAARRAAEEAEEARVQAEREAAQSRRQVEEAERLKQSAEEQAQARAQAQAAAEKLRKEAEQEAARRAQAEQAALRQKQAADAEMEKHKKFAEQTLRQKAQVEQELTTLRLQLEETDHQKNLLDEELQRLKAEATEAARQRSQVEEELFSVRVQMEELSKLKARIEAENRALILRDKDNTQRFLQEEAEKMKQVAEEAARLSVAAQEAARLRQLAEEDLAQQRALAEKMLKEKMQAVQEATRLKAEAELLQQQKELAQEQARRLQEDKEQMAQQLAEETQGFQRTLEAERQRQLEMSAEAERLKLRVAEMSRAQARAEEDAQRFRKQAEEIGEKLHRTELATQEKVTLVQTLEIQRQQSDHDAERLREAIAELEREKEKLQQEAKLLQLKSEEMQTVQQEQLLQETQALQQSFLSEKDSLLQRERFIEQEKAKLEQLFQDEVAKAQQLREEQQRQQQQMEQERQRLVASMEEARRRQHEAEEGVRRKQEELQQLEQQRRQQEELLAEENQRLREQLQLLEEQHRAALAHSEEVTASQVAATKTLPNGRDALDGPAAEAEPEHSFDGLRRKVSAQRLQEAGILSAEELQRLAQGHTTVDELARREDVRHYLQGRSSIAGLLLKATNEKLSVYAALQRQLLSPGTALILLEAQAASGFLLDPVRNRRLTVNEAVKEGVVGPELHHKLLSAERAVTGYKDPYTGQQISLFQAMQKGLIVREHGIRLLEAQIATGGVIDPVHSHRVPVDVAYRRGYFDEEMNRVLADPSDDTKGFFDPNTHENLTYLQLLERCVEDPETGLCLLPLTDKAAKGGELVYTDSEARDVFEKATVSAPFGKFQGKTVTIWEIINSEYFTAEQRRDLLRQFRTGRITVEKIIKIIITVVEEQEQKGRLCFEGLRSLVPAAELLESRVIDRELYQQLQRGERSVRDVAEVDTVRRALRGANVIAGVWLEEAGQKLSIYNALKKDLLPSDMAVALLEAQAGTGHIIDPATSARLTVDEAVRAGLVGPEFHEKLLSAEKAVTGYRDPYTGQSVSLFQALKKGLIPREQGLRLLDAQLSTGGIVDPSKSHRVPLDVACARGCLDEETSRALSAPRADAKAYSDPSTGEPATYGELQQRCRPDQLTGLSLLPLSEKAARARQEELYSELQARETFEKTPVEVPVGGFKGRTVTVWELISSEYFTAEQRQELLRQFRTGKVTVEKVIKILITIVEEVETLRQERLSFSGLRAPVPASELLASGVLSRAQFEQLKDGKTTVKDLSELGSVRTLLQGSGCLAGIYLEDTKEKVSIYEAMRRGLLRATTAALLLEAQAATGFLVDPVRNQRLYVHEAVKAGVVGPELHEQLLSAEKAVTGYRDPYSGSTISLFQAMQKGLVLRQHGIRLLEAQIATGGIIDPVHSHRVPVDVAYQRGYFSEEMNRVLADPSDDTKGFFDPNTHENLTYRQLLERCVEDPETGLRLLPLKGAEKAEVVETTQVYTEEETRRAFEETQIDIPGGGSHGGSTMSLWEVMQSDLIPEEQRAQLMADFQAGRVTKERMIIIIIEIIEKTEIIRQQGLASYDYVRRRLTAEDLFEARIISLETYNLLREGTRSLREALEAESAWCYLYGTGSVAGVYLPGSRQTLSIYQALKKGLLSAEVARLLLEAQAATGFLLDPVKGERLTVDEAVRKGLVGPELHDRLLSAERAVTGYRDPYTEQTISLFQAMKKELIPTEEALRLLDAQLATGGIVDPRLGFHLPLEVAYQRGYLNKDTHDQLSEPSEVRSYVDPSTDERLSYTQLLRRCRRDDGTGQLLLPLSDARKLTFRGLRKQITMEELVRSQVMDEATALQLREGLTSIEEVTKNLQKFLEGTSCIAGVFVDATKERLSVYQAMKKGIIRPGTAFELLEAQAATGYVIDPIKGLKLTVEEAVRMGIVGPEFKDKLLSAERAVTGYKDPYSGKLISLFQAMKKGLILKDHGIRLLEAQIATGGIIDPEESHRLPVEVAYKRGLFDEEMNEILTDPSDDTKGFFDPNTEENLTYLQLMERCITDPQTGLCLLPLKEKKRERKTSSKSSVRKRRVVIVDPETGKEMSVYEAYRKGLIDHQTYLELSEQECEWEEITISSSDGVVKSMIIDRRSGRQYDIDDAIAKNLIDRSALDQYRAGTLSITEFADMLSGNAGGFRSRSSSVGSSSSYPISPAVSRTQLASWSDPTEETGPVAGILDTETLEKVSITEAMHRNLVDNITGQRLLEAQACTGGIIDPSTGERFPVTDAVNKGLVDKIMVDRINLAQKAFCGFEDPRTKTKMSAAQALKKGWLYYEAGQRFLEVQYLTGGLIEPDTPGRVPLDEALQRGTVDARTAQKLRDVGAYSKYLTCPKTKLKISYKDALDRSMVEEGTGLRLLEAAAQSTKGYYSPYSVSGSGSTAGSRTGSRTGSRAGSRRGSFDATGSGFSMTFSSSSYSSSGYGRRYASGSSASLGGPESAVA

Kd [1]: < 1 nM
B1: PAb1 (antibody, mouse IgG2b, kappa, V domains shown)
VH: QIQLVQSGPELKKPGETVKISCKASGYTFTDYSMHWVKQAPGKGLKWMGWINTETGEPTYADDFKGRFAFSLETSASTAYLQINNLKNEDTATYFCAPGGFAYWGQGTLVTVSA
VL: DIVMTQAAPSVPVTPGESVSISCRSSKSLLHSNGNTYLYWFLQRPGQSPQLLIYRMSNLASGVPDRFSGSGSGTAFTLRISRVEAEDVGVYYCMQHLEYPLTFGAGTKLELKR
notes: Mouse hybridoma monoclonal antibody; also called Plectin-1 mAb; Plectin-1mAb
Plectin-1mAb EC50 (nM): concentration of mAb that reduced cell viability by 50%, L3.6pl cells, 72 hours [2]: 34 nM
Plectin-1mAb EC50 (nM): concentration of mAb that reduced cell viability by 50%, OVCAR8 cells, 72 hours [2]: 63 nM
Plectin-1mAb EC50 (nM): concentration of mAb that reduced cell viability by 50%, SKOV3 cells, 72 hours [2]: 53 nM
Plectin-1mAb EC50 (nM): concentration of mAb that reduced cell viability by 50%, YapC cells, 72 hours [2]: 43 nM
